B1: HA-tagged SREBF1 (wild type), expressed in C4-2B cells [not stated] / KAT2A/GCN5, endogenous [human (endogenous in C4-2B, LAPC4)] (parent)
chain 1: MDEPPFSEAALEQALGEPCDLDAALLTDIEDMLQLINNQDSDFPGLFDPPYAGSGAGGTDPASPDTSSPGSLSPPPATLSSSLEAFLSGPQAAPSPLSPPQPAPTPLKMYPSMPAFSPGPGIKEESVPLSILQTPTPQPLPGALLPQSFPAPAPPQFSSTPVLGYPSPPGGFSTGSPPGNTQQPLPGLPLASPPGVPPVSLHTQVQSVVPQQLLTVTAAPTAAPVTTTVTSQIQQVPVLLQPHFIKADSLLLTAMKTDGATVKAAGLSPLVSGTTVQTGPLPTLVSGGTILATVPLVVDAEKLPINRLAAGSKAPASAQSRGEKRTAHNAIEKRYRSSINDKIIELKDLVVGTEAKLNKSAVLRKAIDYIRFLQHSNQKLKQENLSLRTAVHKSKSLKDLVSACGSGGNTDVLMEGVKTEVEDTLTPPPSDAGSPFQSSPLSLGSRGSGSGGSGSDSEPDSPVFEDSKAKPEQRPSLHSRGMLDRSRLALCTLVFLCLSCNPLASLLGARGLPSPSDTTSVYHSPGRNVLGTESRDGPGWAQWLLPPVVWLLNGLLVLVSLVLLFVYGEPVTRPHSGPAVYFWRHRKQADLDLARGDFAQAAQQLWLALRALGRPLPTSHLDLACSLLWNLIRHLLQRLWVGRWLAGRAGGLQQDCALRVDASASARDAALVYHKLHQLHTMGKHTGGHLTATNLALSALNLAECAGDAVSVATLAEIYVAAALRVKTSLPRALHFLTRFFLSSARQACLAQSGSVPPAMQWLCHPVGHRFFVDGDWSVLSTPWESLYSLAGNPVDPLAQVTQLFREHLLERALNCVTQPNPSPGSADGDKEFSDALGYLQLLNSCSDAAGAPAYSFSISSSMATTTGVDPVAKWWASLTAVVIHWLRRDEEAAERLCPLVEHLPRVLQESERPLPRAALHSFKAARALLGCAKAESGPASLTICEKASGYLQDSLATTPASSSIDKAVQLFLCDLLLVVRTSLWRQQQPPAPAPAAQGTSSRPQASALELRGFQRDLSSLRRLAQSFRPAMRRVFLHEATARLMAGASPTRTHQLLDRSLRRRAGPGGKGGAVAELEPRPTRREHAEALLLASCYLPPGFLSAPGQRVGMLAEAARTLEKLGDRRLLHDCQQMLMRLGGGTTVTSS
chain 2: MAEPSQAPTPAPAAQPRPLQSPAPAPTPTPAPSPASAPIPTPTPAPAPAPAAAPAGSTGTGGPGVGSGGAGSGGDPARPGLSQQQRASQRKAQVRGLPRAKKLEKLGVFSACKANETCKCNGWKNPKPPTAPRMDLQQPAANLSELCRSCEHPLADHVSHLENVSEDEINRLLGMVVDVENLFMSVHKEEDTDTKQVYFYLFKLLRKCILQMTRPVVEGSLGSPPFEKPNIEQGVLNFVQYKFSHLAPRERQTMFELSKMFLLCLNYWKLETPAQFRQRSQAEDVATYKVNYTRWLCYCHVPQSCDSLPRYETTHVFGRSLLRSIFTVTRRQLLEKFRVEKDKLVPEKRTLILTHFPKFLSMLEEEIYGANSPIWESGFTMPPSEGTQLVPRPASVSAAVVPSTPIFSPSMGGGSNSSLSLDSAGAEPMPGEKRTLPENLTLEDAKRLRVMGDIPMELVNEVMLTITDPAAMLGPETSLLSANAARDETARLEERRGIIEFHVIGNSLTPKANRRVLLWLVGLQNVFSHQLPRMPKEYIARLVFDPKHKTLALIKDGRVIGGICFRMFPTQGFTEIVFCAVTSNEQVKGYGTHLMNHLKEYHIKHNILYFLTYADEYAIGYFKKQGFSKDIKVPKSRYLGYIKDYEGATLMECELNPRIPYTELSHIIKKQKEIIKKLIERKQAQIRKVYPGLSCFKEGVRQIPVESVPGIRETGWKPLGKEKGKELKDPDQLYTTLKNLLAQIKSHPSAWPFMEPVKKSEAPDYYEVIRFPIDLKTMTERLRSRYYVTRKLFVADLQRVIANCREYNPPDSEYCRCASALEKFFYFKLKEGGLIDK

Variants of: B1
Experiment: co-immunoprecipitation (anti-HA affinity gel, immunoblot with KAT2A antibody), band quantification
Conditions: with KAT2A/GCN5, endogenous [human (endogenous in C4-2B, LAPC4)]; C4-2B cells; + Abi; parent: 1

Row | response | Variant
1 | 0.01 | chain 1 Y673A Y951A
